Measured values: the supplement of paper PMC9732359
± gives the uncertainty stated by the source.

Assay: protein stability index of a GFP-peptide fusion (yeast GPS) (PSI 1-4); higher = more stable; sorted into four equal gates, so the index is relative within each strain
In short: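 Tiled 17-residue yeast protein peptides were fused downstream of GFP in a plasmid that also expresses Cherry, and the pooled library was carried in yeast. Mid-log cultures in leucine-free medium were sorted into four equal gates by GFP/Cherry fluorescence ratio, and plasmids from each gate were PCR-amplified and Illumina-sequenced, with reads assigned to strains by barcodes. The protein stability index for each peptide was each gate's read frequency times its gate number, summed.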

Sequence | protein stability index (doa10∆) | protein stability index (pdr5∆) | protein stability index (san1∆) | protein stability index (ubr1∆)
EGQIIQRSNISTAIKSL [CDC53] | 1.55 ± 0.056 | 2.33 ± 0.099 | 2.46 ± 0.16 | 1.79 ± 0.079
FGNIQKVVNFWLLHNGF [RPO21] | 2.26 ± 0.18 | 1.83 ± 0.099 | 1.99 ± 0.19 | 1.41 ± 0.073
DACPLDNQPWQLARCGR [HRT1] | 2.76 ± 0.068 | 2.56 ± 0.067 | 2.03 ± 0.077 | 2.61 ± 0.059
YQSPTIFKIVQSRLMST [MED6] | 1.71 ± 0.1 | 1.59 ± 0.13 | – | 1.96 ± 0.094
QTIEMITQIVEKDFCTS [SRB8] | 2.86 ± 0.054 | 3.08 ± 0.058 | 2.93 ± 0.047 | 3.02 ± 0.048
IKQTFKNDLFVIWSEDN [RPO21] | 2.13 ± 0.057 | 2.32 ± 0.063 | 2.31 ± 0.058 | 2.36 ± 0.056
TAELIKELKEKEAAESP [PUP2] | 2.79 ± 0.058 | 3.3 ± 0.094 | 3.21 ± 0.12 | 3.22 ± 0.074
ADNDGPRINNISAEDRA [SNF2] | 2.79 ± 0.15 | 3.16 ± 0.18 | 2.9 ± 0.1 | 1.52 ± 0.24
AAGYGKILGKGRIPNVP [RPL28] | 3.46 ± 0.087 | 3.2 ± 0.075 | 3.46 ± 0.066 | 3.48 ± 0.05
KPSNGKGSRKSSKAATP [SNF12] | 3 ± 0.085 | 3.02 ± 0.076 | 3.24 ± 0.079 | 3.239 ± 0.027
TTFRNEYGKHDFKNEES [MED8] | 3.05 ± 0.1 | 3.01 ± 0.084 | 3.14 ± 0.051 | 3.28 ± 0.096
KNFKGIEEIEYNVKNII [PCI8] | 3.05 ± 0.078 | 3.04 ± 0.093 | 3.11 ± 0.061 | 3.05 ± 0.063
EKAIPKDQRATTPYMTK [RPO26] | 2.85 ± 0.043 | 2.98 ± 0.047 | 2.97 ± 0.046 | 3.03 ± 0.044
REDTPLSQNESTRASTV [ISW2] | 2.96 ± 0.067 | 3.11 ± 0.058 | 2.96 ± 0.052 | 2.97 ± 0.048
QNRSLQEHNIQDSNVMP [SNF2] | 3.19 ± 0.057 | 3.08 ± 0.053 | 2.92 ± 0.04 | 3.31 ± 0.04
GLESQIQEIKESVELPL [RPT2] | 2.11 ± 0.087 | 2.3 ± 0.073 | 2.48 ± 0.067 | 2.83 ± 0.072
DSEKRNKYAAMLTSENA [RRP45] | 2.97 ± 0.068 | 3.02 ± 0.063 | 3.14 ± 0.067 | 2.92 ± 0.04
IEDKENSESTTQGGNVN [RPT5] | 3.59 ± 0.14 | 3.31 ± 0.14 | 3.46 ± 0.17 | 3.6 ± 0.11
TYSTPKRPYESSRLDAE [RPS9A] | 2.97 ± 0.073 | 3.02 ± 0.062 | 2.93 ± 0.082 | 2.87 ± 0.064
ILLQHKEKLTVQDCRYS [POP1] | 2.53 ± 0.054 | 2.45 ± 0.049 | 2.31 ± 0.05 | 2.42 ± 0.03
PGDGSSYINVTFRAVVF [RPC25] | 1.5 ± 0.083 | 2.05 ± 0.058 | 2.4 ± 0.077 | 2.08 ± 0.054
SIMVELKLPLEINYAFS [SIR3] | 1.31 ± 0.077 | 1.64 ± 0.064 | 1.55 ± 0.12 | 1.5 ± 0.058
RLQQGRRLPMTMFTAEQ [SNF2] | 3.09 ± 0.053 | 3.19 ± 0.048 | 3.13 ± 0.043 | 3.27 ± 0.045
FVDENTFQRVCQYMVAC [RPN1] | 3.09 ± 0.074 | 2.59 ± 0.072 | 2.77 ± 0.095 | 2.99 ± 0.091
EQKWLIYDKKDHKYVCT [SRB8] | 2.64 ± 0.29 | 2.33 ± 0.17 | – | 3.23 ± 0.22
HAKFSPVSTASYRLLPQ [RPC40] | 1.71 ± 0.076 | 1.75 ± 0.055 | 1.84 ± 0.089 | 2.23 ± 0.077
ERNAAYQKEYETAERNI [RPL7A] | 2.71 ± 0.12 | 2.61 ± 0.1 | 2.48 ± 0.095 | 2.62 ± 0.18

Sequence | protein stability index (doa10∆) | protein stability index (pdr5∆) | protein stability index (san1∆) | protein stability index (ubr1∆)
HSLREYINGKATALANL [RPO31] | 3.06 ± 0.086 | 3.21 ± 0.095 | 2.57 ± 0.088 | 2.99 ± 0.068
TMGGNAELELVDSLDPF [SMC4] | 3.25 ± 0.1 | 3.17 ± 0.086 | 3.39 ± 0.074 | 3.15 ± 0.084
QQLLKGLSLSFSKKLDL [DSN1] | 3.13 ± 0.076 | 3.1 ± 0.088 | 2.74 ± 0.069 | 3.16 ± 0.075
PWNDDYPFLLSFLGEAK [YML103C/NUP188] | 1.42 ± 0.047 | 1.6 ± 0.061 | 1.66 ± 0.088 | 1.98 ± 0.046
GEIGDFFSSDWRFLQIL [POP1] | 2.73 ± 0.089 | 2.79 ± 0.09 | 2.94 ± 0.066 | 2.55 ± 0.093
KSKGDVDIKGEDLHEKN [NUT1] | 3.32 ± 0.27 | – | 3.44 ± 0.15 | –
RNFDTHENYIQDDDFPL [MCD1] | 2.92 ± 0.06 | 2.8 ± 0.053 | 2.85 ± 0.048 | 2.91 ± 0.045
GHNDWVSQVRVVPNEKA [ASC1] | 2.3 ± 0.1 | 2.85 ± 0.076 | 2.94 ± 0.066 | 2.69 ± 0.065
KISNSKLLSLLRSKTSA [SIR4] | 2.19 ± 0.058 | 2.45 ± 0.044 | 2.3 ± 0.08 | 2.29 ± 0.055
MGMDLYKTSKAAQDVWN [FAS1] | 3.08 ± 0.13 | 3.37 ± 0.16 | 3.08 ± 0.13 | 3.43 ± 0.077
AKKQNRPLPQWIRLRTN [RPL39] | 1.95 ± 0.063 | 2.69 ± 0.043 | 1.26 ± 0.082 | 2.44 ± 0.043
TKFKGGKRQLMKAVGEY [SEC65] | 2.88 ± 0.098 | 3.11 ± 0.11 | 3.26 ± 0.056 | 2.46 ± 0.088
GCIKIYSSRVDSVTTET [BRN1] | 2.43 ± 0.14 | 2.52 ± 0.13 | 2.35 ± 0.21 | 2.12 ± 0.17
AVINIRDDGKRELLVEG [RPO31] | 3.56 ± 0.2 | 3.06 ± 0.22 | – | 3.14 ± 0.1
AFHNNLKFLYLLDAYSH [MED1] | 1.16 ± 0.07 | 1.25 ± 0.049 | 1.16 ± 0.1 | 1.26 ± 0.042
DDDKKPDDDKIVPLTEG [RPT1] | 3 ± 0.13 | 3.29 ± 0.11 | 3.16 ± 0.12 | 3.32 ± 0.064
AARHKQHEQGTFEKHDR [RRI2] | 3.02 ± 0.067 | 3.04 ± 0.23 | – | 2.96 ± 0.14
AGIPIGLKRSQLDEFKN [SWP82] | 2.56 ± 0.084 | 2.22 ± 0.075 | 2.21 ± 0.098 | 1.38 ± 0.055
SKYCEKSLPLLITVMEK [YCS4] | 1.76 ± 0.052 | 1.86 ± 0.048 | 2.12 ± 0.067 | 1.87 ± 0.039
VAPFMIKYEFNGIPLKS [YMR129W/POM152] | 2.54 ± 0.077 | 1.91 ± 0.045 | 2.38 ± 0.083 | 2.75 ± 0.073
DKDNAEKTLGKSLSKAI [RPN7] | 2.27 ± 0.12 | 2.67 ± 0.21 | – | –
LLREFKKLDDKPSLVDV [RPN6] | – | 3.44 ± 0.25 | 3.27 ± 0.26 | –
DGEGKVDSISLHKIFYK [YCG1] | 2.78 ± 0.087 | 3.24 ± 0.064 | 3.13 ± 0.048 | 2.94 ± 0.063
ESQPKQTGTRRNSKLLN [MCD1] | 3.29 ± 0.099 | 3.16 ± 0.12 | 3.19 ± 0.079 | 3.12 ± 0.076
NTHNKSTKRVTKHPSLK [POP7] | 2.6 ± 0.07 | 2.78 ± 0.062 | 2.67 ± 0.044 | 2.72 ± 0.046
MCVSKGNASLKYIALQV [YCG1] | 2.54 ± 0.099 | 2.02 ± 0.077 | 1.48 ± 0.12 | 2.6 ± 0.084
QRMHAIHEIDERLAKVN [NNF1] | 1.44 ± 0.093 | 2.59 ± 0.14 | 2.42 ± 0.085 | 2.14 ± 0.061
